Results from the supplement of paper PMC10567573.

B1: KCNAB2 (parent)
chain: SSIIHEIDSILGNKPYSKKDYRS

Variants of: B1
Assay: protein stability index of a GFP-peptide fusion (GPS, HEK-293T) (PSI 1-6); higher = more stable
Settings: c terminus: native
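Also: lentivirally expressed fusions sorted by FACS into six bins by GFP to DsRed ratio, PSI derived from sequencing read proportions per bin multiplied by bin number.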

Protein stability index: each site, then its substitutions
S17: E 3.77; C 3.79; H 2.95; R 3.23; M 3.2; A 3.74; L 2.93; G 3.15; P 3.31; T 2.7; F 3.2; Y 2.8; K 3.43; N 2.99; I 3.54; V 3.45; W 2.29; Q 3.76; D 3.22
K18: C 2.08; R 2.94; G 2.61; A 2.33; P 2.03; S 2.69; T 2.56; H 2.48; L 2.12; M 1.27; V 2.59; I 2.11; D 2.7; Q 2.76; W 3.39; F 2.32; N 3.1; Y 2.24; E 3.16
Y16: A 2.85; D 3.65; T 3.78; L 3.22; I 3.8; F 3.41; V 3.26; R 2.22; N 3.34; H 3.27; S 3.02; E 4.12; M 2.71; C 3.55; W 2.19; K 2.48; P 3.6; Q 3.14; G 3.59
N13: V 2.59; E 2.82; M 2.56; G 2.61; T 2.97; A 2.14; L 2.47; C 2.25; P 2.54; F 2.68; Y 1.79; H 3; R 3.1; I 2.51; Q 2.63; S 2.59; W 2.38
P15: A 3.54; S 3.42; L 2.84; E 3.18; F 2.32; Q 2.8; T 3.33; G 3.36; Y 2.63; I 3.18; R 2.98; V 2.71; N 3.39; W 2.44; M 3.28; C 3.14; D 3.27; K 3.36; H 2.63
L11: G 4.19; K 4.03; D 4.72; H 4.46; S 4.36; Y 3.4; Q 4.91; P 4.19; C 3.86; W 2.63; F 3.07; T 4.27; I 3.42; A 3.9; R 4.13; V 3.69; E 4.69; N 4; M 4.04
I10: S 3.68; D 4.05; C 3.79; E 3.45; M 3.32; G 4.32; K 4.87; R 4.3; H 4.15; Q 4.47; N 4.38; P 4.38; Y 3; L 3.12; V 3.67; W 1.96; F 2.32; T 3.89
K14: E 3.24; V 2.94; D 3.31; H 2.32; L 2.77; I 2.63; A 2.62; N 3.22; Q 3.1; M 2.9; P 3; Y 2.32; W 1.7; C 2.55; F 1.99; G 2.69; S 3.49; T 2.89; R 3.09
G12: V 2.76; Y 2.97; Q 3.16; E 3.69; A 2.61; W 2.6; L 2.8; S 3.51; M 3.77; K 3.38; P 3.86; F 4.21; C 2.82; N 3.18; I 2.62; D 3.81; R 2.73; T 3.24
